In patent US20240199757A1 (UNIVERSITY OF CHICAGO, published 2024):
Where two headings read alike, the source gives them in different places.

T1: human NT5E expressed on MDA-MB-231 cells (human, UniProt P21589 27-549)
T1 sequence (looked up): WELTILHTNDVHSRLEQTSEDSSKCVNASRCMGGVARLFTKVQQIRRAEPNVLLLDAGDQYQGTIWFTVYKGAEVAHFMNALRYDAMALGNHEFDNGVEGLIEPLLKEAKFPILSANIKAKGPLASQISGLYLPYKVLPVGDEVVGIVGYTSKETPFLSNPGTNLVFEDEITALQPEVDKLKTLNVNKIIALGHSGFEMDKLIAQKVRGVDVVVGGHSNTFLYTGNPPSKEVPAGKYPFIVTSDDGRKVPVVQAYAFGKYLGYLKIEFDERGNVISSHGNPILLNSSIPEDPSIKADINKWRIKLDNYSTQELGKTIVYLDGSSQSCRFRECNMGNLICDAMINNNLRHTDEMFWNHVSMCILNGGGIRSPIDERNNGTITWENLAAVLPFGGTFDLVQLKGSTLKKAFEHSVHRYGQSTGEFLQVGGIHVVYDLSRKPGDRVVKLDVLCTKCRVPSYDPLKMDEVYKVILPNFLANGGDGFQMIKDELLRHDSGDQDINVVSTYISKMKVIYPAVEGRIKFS

T2: Full-length human NT5E (recombinant, in-house) (human, UniProt P21589 27-549)
T2 construct: also called hNT5E; hNT5EWT
T2 sequence: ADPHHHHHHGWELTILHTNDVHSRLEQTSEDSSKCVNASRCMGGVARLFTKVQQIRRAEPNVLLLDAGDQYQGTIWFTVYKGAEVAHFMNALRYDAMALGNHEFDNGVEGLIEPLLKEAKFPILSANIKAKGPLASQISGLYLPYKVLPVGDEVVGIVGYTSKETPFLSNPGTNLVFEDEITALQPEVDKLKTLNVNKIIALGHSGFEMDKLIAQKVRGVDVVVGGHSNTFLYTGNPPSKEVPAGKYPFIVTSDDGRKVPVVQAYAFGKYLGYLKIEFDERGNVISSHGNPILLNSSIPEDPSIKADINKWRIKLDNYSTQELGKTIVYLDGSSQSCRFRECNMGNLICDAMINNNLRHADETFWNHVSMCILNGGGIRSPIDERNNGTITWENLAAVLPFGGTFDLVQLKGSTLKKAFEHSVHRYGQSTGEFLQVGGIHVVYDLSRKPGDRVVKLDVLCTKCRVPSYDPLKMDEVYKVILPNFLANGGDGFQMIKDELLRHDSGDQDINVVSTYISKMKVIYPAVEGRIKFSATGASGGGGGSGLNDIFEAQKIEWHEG

T3: Full-length murine NT5E (recombinant) (murine, UniProt Q61503 29-552)
T3 construct: also called mNT5E
T3 sequence: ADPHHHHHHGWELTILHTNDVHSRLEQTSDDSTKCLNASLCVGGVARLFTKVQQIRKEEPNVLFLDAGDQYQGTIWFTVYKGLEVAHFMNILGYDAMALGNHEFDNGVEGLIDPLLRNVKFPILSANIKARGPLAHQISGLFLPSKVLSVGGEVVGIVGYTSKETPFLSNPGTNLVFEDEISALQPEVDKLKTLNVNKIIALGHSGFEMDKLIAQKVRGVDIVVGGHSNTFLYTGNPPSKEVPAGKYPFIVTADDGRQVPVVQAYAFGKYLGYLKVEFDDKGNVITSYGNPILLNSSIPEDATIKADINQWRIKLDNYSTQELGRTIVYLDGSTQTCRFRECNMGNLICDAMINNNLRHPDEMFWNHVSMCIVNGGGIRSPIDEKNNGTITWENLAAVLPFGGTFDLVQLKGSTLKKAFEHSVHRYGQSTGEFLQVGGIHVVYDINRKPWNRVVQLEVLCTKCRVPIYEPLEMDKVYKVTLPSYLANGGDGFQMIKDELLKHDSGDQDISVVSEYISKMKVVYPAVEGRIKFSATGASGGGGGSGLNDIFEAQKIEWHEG


How the values were obtained:
[1] = target: T1, human NT5E expressed on MDA-MB-231 cells; assay: cell-based or functional assay
[2] = target: T2, Full-length human NT5E (recombinant, …); assay: SPR, His-captured NT5E, 1 mM ATP
Procedure: (§1) All SPR experiments were performed at 25° C. using MASS-1 (Bruker) instrument. hNT5E, mNT5E and cNT5E were immobilized onto a nitrilotriacetic acid (NTA) sensor chip via His-tag. For kinetic experiments, after ligand immobilization, 2-fold serial dilutions of the Fabs were injected. After double-reference subtraction data were analyzed with BiaEvaluation (GE Healthcare) or Sierra Analyser (Bruker) software. The experiments were carried in buffers in presence and absence of 1 mM ATP to compare the kinetic parameters of the Fabs binding to closed and open form of NT5E.

[3] = target: T3, Full-length murine NT5E (recombinant); assay: SPR, His-captured NT5E, 1 mM ATP
Procedure: as §1

[4] = target: T2, Full-length human NT5E (recombinant, …); assay: SPR, His-captured NT5E, no ATP
Procedure: as §1

[5] = target: T3, Full-length murine NT5E (recombinant); assay: SPR, His-captured NT5E, no ATP
Procedure: as §1

[6] = target: T2, Full-length human NT5E (recombinant, …); assay: SPR, hNT5E-6xHis on NTA chip, primary Fab injection; Fab concentration and ATP condition not given
Procedure: After incubation, the remaining NT5E is probed with αStrep-HRP Ab. If there is competition for binding to NT5E, then a decrease in signal would be expected.
as §1

[7] = target: T1, human NT5E expressed on MDA-MB-231 cells; assay: cell-based or functional assay; remark: listed apart in the source
[8] = target: T1, human NT5E expressed on MDA-MB-231 cells; assay: flow cytometry on MDA-MB-231 cells, 1 mM ATP
Procedure: (§2) Flow cytometry analysis of antibodies binding to human NT5E expressed on MDA-MB-231 cells in ATP-free condition (black) or in 1 mM ATP (red). Top panel: (left) 1780 Fab and (right) 1780 IgG titrations. […] Binding was measured at the indicated range of antibody concentrations and is expressed as mean±st. dev of median fluorescence intensity (MFI) of 1-2 replicates. Data were analyzed using OriginLab, and EC₅₀ values are shown next to the fitted curves.
(§3) Human MDA-MB-231 cells and murine 4T1 cells were grown to 90% confluency, detached with 5 mM EDTA for 15 min at 37° C. and then resuspended in 37° C. lx PBS (#10010031, Gibco) supplemented with 1% FBS and 1OpM ZnCl2. Separate working buffers (WB) of PBS and 1% FBS with or without fixed nucleotide concentrations were used throughout all washing steps to maintain constant condition. In 96-well plates (#3799, Costar), 0.2×10⁶ cells were added per well. The plates were spun at 500×g for 5 min and the supernatant was removed. Anti-NT5E antibodies were diluted to the desired concentration in 100 μL WB, added to the cells and the plates were incubated for 20 min at 37° C. Plates were spun and cells were washed twice with WB then spun a second time. Cells were stained with 100 μL of secondary antibody (Alexa Fluor 647 AffiniPure Goat Anti-Human IgG, F(ab′)2 fragment specific, #109-605-006, Jackson, 1:200) dilution and plates were incubated for 20 min at 37° C. Cells were washed twice with WB then fixed on ice with WB supplemented with 0.5% PFA. Fixing solution was removed by centrifugation and cells were resuspended in cold 1× PBS. Samples were analyzed by flow cytometry using CytoFLEX (Beckman Coulter) and mean fluorescence intensity (MFI) data was extracted using FlowJo software. Resulting binding data was plotted using OriginLab.

[9] = target: T1, human NT5E expressed on MDA-MB-231 cells; assay: flow cytometry on MDA-MB-231 cells, 1 mM ATP; remark: listed apart in the source
Procedure: as §2, §3

[10] = target: T3, Full-length murine NT5E (recombinant); assay: SPR, His-captured NT5E, no ATP (* Data generated poor fits)
Procedure: as §1

Binder	IC50 of NT5E activity on MDA-MB-231 cells, no ATP [1] [nM]	IC50 of NT5E activity on MDA-MB-231 cells, with ATP [1] [nM]	Kd [2] [nM]	koff [2] [s⁻¹]	kon [2] [M⁻¹ s⁻¹]	Kd [3] [nM]	koff [3] [s⁻¹]	kon [3] [M⁻¹ s⁻¹]	Kd [4] [nM]	koff [4] [s⁻¹]	kon [4] [M⁻¹ s⁻¹]	Kd [5] [nM]	koff [5] [s⁻¹]	kon [5] [M⁻¹ s⁻¹]	binding result [6]	IC50 of NT5E phosphate production on MDA-MB-231 cells, +500 µM ATP [7] [nM]	EC50 [8] [nM]	EC50 [9] [nM]	Kd [10] [nM]
Medi9447 IgG (antibody, V domains shown) VH: EVQLLESGGGLVQPGGSLRLSCAASGFTFSSYAYSWVRQAPGKGLEWVSAISGSGGRTYYADSVKGRFTISRDNSKNTLYLQMNSLRAEDTAVYYCARLGYGRVDEWGRGTLVTVSS VL: QSVLTQPPSASGTPGQRVTISCSGSLSNIGRNPVNWYQQLPGTAPKLLIYLDNLRLSGVPDRFSGSKSGTSASLAISGLQSEDEADYYCATWDDSHPGWTFGGGTKLTVLG	0.3	1																	
1789 AM32 Fab (Fab, V domains shown, also called Fab32) VH: EVQLVESGGGLVQPGGSLRLSCAASGFNVSYSSIHWVRQAPGKGLEWVARIRGNEGDTYYADSVKGRFTISADTSKNTAYLQMNSLRAEDTAVYYCARNYWGWYPFYYFAFDYWGQGTLVTV VL: DIQMTQSPSSLSASVGDRVTITCRASQSVSSAVAWYQQKPGKAPKLLIYSASSLYSGVPSRFSGSRSGTDFTLTISSLQPEDFATYYCQQGWDYPITFGQGTKVEIKR			15	0.0042	270000	15	0.0028	190000	86	0.0091	110000	150	0.011	78000					
1557 Fab (Fab, V domains shown) VH: EVQLVESGGGLVQPGGSLRLSCAASGFNVYYSSIHWVRQAPGKGLEWVASISSSSGSTSYADSVKGRFTISADTSKNTAYLQMNSLRAEDTAVYYCARYGWWEYGYGGWWHPALDYWGQGTLVTV VL: DIQMTQSPSSLSASVGDRVTITCRASQSVSSAVAWYQQKPGKAPKLLIYSASSLYSGVPSRFSGSRSGTDFTLTISSLQPEDFATYYCQQVWWGPITFGQGTKVEIKR															binds				
1780 IgG (antibody, V domains shown) VH: EVQLVESGGGLVQPGGSLRLSCAASGFNFYSYSIHWVRQAPGKGLEWVASISSSSGYTYYADSVKGRFTISADTSKNTAYLQMNSLRAEDTAVYYCARYSWWGWHMEGWWGYMNAFDYWGQGTLVTVSS VL: DIQMTQSPSSLSASVGDRVTITCRASQSVSSAVAWYQQKPGKAPKLLIYSASSLYSGVPSRFSGSRSGTDFTLTISSLQPEDFATYYCQQAHPKPITFGQGTKVEIKR																50.5	19.6	28	
1789 AM42 Fab (Fab, V domains shown) VH: EVQLVESGGGLVQPGGSLRLSCAASGFNVSYSSIHWVRQAPGKGLEWVAKIRGGHQDTHYADSVKGRFTISADTSKNTAYLQMNSLRAEDTAVYYCARNYWGWYPFYYFAFDYWGQGTLVTV VL: DIQMTQSPSSLSASVGDRVTITCRASQSVSSAVAWYQQKPGKAPKLLIYSASSLYSGVPSRFSGSRSGTDFTLTISSLQPEDFATYYCQQGWDYPITFGQGTKVEIKR			11	0.0036	320000	12	0.0029	250000	38	0.0067	180000	63	0.012	190000					
1789 AM39 Fab (Fab, V domains shown) VH: EVQLVESGGGLVQPGGSLRLSCAASGFNVSYSSIHWVRQAPGKGLEWVASIRGAGSDTRYADSVKGRFTISADTSKNTAYLQMNSLRAEDTAVYYCARNYWGWYPFYYFAFDYWGQGTLVTV VL: DIQMTQSPSSLSASVGDRVTITCRASQSVSSAVAWYQQKPGKAPKLLIYSASSLYSGVPSRFSGSRSGTDFTLTISSLQPEDFATYYCQQGWDYPITFGQGTKVEIKR			7.9	0.0039	490000	12	0.0035	290000	35	0.0099	280000		0.013	140000					99
